Measured values published in US20210087288A1.

Key:
[1] = target: Cynomolgus monkey FcRn (cynomolgus monkey) (UniProt Q8SPV9); assay: SPR (BIAcore T200), antibody captured via anti-Fab, FcRn injected, pH 6, steady state
Human FcRn (human) = Human FcRn (human) (UniProt P55899); assay: as above
Sequence of Human FcRn (human) (P55899 24-297 limits assumed): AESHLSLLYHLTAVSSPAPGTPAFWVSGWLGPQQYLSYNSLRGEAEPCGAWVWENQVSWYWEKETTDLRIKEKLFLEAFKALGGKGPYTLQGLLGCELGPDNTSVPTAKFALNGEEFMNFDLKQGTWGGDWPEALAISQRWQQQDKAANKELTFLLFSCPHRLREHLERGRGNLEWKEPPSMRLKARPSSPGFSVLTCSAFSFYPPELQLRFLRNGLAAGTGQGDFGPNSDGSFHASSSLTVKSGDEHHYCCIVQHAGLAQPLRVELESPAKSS

Sequence of Cynomolgus monkey FcRn (cynomolgus monkey) (Q8SPV9 24-297 limits assumed): as the sequence (P55899 24-297 limits assumed) above, with N39D, E44Q, G99S, S189G, S190N, L217M, S269T counted along it

Substance: Anti-gD.hIgG1 (antibody)
- Kd [1]: 900 nM
- Kd (Human FcRn (human)): 700 nM
